The text below walks through data of patent publication US20140274782A1, “AFFINITY REAGENTS AND METHODS FOR DETECTION, PURIFICATION, AND PROTEOMIC ANALYSIS OF METHYLATED PROTEINS” (The Board of Trustees of the Leland Stanford Junior …, priority 2013, published 2014).

One assay deals with T1, G9a and GLP (Homo sapiens, UniProt Q96KQ7+Q9H9B1).
T1 sequence (Q96KQ7 2-1210 limits assumed): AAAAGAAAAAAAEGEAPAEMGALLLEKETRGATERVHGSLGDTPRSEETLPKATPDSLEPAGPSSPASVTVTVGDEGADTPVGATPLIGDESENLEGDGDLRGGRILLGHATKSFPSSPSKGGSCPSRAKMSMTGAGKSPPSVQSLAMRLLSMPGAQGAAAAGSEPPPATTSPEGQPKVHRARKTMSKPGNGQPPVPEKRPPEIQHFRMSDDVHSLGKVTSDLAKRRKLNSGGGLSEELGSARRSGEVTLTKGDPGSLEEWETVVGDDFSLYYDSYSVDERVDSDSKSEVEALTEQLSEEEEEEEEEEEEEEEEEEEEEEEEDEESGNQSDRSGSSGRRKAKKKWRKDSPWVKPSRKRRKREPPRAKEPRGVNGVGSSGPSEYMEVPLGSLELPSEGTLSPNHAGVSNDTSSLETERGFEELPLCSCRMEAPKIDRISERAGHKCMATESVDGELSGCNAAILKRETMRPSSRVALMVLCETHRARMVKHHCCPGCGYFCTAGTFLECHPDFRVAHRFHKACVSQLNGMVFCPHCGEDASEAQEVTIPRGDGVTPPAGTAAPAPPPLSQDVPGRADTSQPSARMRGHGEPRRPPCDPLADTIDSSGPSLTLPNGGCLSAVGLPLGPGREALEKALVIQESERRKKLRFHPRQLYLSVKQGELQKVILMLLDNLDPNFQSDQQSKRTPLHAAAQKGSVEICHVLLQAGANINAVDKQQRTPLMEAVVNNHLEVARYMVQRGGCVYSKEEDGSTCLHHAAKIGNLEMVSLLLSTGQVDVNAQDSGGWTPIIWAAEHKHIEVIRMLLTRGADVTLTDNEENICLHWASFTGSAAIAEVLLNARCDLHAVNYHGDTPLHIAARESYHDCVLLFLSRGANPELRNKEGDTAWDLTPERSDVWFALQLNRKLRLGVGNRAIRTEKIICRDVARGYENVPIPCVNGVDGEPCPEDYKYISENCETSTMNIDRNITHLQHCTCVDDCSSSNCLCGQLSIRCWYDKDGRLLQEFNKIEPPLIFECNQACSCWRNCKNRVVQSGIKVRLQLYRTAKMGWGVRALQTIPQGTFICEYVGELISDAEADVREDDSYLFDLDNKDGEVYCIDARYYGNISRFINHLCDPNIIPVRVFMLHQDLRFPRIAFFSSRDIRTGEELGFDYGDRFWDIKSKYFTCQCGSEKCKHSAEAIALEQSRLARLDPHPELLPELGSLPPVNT
T1 sequence (Q9H9B1 2-1298 limits assumed): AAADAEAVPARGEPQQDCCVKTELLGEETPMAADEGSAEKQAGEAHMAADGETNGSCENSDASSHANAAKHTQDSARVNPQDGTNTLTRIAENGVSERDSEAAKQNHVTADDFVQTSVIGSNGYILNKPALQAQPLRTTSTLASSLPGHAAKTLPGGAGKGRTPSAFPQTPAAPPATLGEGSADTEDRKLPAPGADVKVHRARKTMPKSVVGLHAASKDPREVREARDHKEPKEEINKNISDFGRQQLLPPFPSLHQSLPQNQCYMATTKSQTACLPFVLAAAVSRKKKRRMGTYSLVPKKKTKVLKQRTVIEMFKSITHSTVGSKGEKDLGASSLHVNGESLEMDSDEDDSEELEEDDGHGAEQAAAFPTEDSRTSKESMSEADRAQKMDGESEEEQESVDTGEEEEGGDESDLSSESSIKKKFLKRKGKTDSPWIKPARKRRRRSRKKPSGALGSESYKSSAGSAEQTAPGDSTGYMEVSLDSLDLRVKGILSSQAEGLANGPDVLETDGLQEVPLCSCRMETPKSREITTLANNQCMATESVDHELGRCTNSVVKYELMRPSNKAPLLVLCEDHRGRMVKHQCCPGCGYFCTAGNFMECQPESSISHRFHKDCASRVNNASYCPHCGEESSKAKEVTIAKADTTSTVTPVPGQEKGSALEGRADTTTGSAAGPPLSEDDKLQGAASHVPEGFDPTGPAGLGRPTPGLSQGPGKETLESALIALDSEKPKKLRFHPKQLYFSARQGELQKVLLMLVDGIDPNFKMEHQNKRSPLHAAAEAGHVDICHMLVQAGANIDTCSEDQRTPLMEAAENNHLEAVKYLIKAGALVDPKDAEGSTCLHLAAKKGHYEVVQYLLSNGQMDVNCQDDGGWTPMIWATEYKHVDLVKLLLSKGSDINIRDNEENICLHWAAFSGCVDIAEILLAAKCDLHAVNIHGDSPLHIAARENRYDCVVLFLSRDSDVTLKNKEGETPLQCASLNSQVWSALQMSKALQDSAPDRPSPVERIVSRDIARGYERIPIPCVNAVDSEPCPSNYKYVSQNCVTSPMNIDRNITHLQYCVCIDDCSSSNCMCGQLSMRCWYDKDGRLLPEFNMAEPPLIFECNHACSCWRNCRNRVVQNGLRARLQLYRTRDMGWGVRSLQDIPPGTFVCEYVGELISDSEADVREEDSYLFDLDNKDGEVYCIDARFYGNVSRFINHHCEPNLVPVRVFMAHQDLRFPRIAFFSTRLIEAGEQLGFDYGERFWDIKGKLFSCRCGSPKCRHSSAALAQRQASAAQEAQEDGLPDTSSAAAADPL
Kind of assay: Triple SILAC pull-down after UNC0638 treatment of 293T cells, DMSO/UNC0638 ratio of protein captured by 3×MBT.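 As to all read-outs here: mass spectrometry (Q-Exactive) SILAC quantitation, DMSO/UNC0638 ratio computed after subtracting 3×MBTD355N mutant pull-down background, only proteins with at least twofold 3×MBT over mutant signal considered.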 In kind it is cell-based. Also on record: cells were treated for 24 hours with UNC0638 at 2.5 μM or DMSO vehicle control; endogenous in cells; host or cells: HEK 293T. The settings on record: for Relative to UNC0638 UNC Heavy / Relative to UNC0638 UNC Light: SILAC ratio DMSO/UNC0638 of protein pulled down with 3xMBT; for Relative to UNC0638 UNC Heavy: UNC0638 in heavy SILAC media; for Relative to UNC0638 UNC Light: UNC0638 in light SILAC media; for Relative to UNC0638 Average: average of UNC Light and UNC Heavy experiments.

Another assay deals with 3×MBT domain of L3MBTL1. Kind of assay: Triple SILAC pull-down, 3xMBT/3xMBTD355N ratio (cytoplasmic, nuclear and chromatin fractions of 293T cells).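 As to all read-outs here: proteins quantified with MaxQuant, requiring at least two unique peptides and quantification in both label directions, normalized to the mean of proteins from a digested loading control.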 In kind it is binding, human. Conditions: SILAC ratio, pull-down 3xMBT vs 3xMBTD355N; for 3xMBT/D355N UNC Heavy: experiment with UNC0638 in heavy SILAC media; for 3xMBT/D355N UNC Light: experiment with UNC0638 in light SILAC media.

B1: HNRNPD (protein, UniProt Q14103 2-355, looked up)
Heterogeneous nuclear …: SEEQFGGDGAAAAATAAVGGSAGEQEGAMVAATQGAAAAAGSGAGTGGGTASGGTEGGSAESEGAKIDASKNEEDEGHSNSSPRHSEAATAQREEWKMFIGGLSWDTTKKDLKDYFSKFGEVVDCTLKLDPITGRSRGFGFVLFKESESVDKVMDQKEHKLNGKVIDPKRAKAMKTKEPVKKIFVGGLSPDTPEEKIREYFGGFGEVESIELPMDNKTNKRRGFCFITFKEEEPVKKIMEKKYHNVGLSKCEIKVAMSKEQYQQQQQWGSRGGFAGRARGRGGGPSQNWNQGYSNYWNQGYGNYGYNSQGYGGYGGYDYTGYNNYYGYGDYSNQQSGYGKVSRRGGHQNSYKPY
Take B1: in the assay with G9a and GLP, the “Relative to UNC0638 UNC Heavy” value worked out at 0.06 log base 2, the “Relative to UNC0638 UNC Light” value amounted to 0.29 log base 2 and the “Relative to UNC0638 Average” value is 0.18 log base 2. For the same molecule, in the assay on 3×MBT domain of L3MBTL1, the “3xMBT/D355N UNC Heavy” value came to 4.07 log base 2 and the “3xMBT/D355N UNC Light” value was determined as 4.56 log base 2.

B2: U2AF2 (protein, UniProt P26368 2-475, looked up)
Splicing factor U2AF 65 kDa …: SDFDEFERQLNENKQERDKENRHRKRSHSRSRSRDRKRRSRSRDRRNRDQRSASRDRRRRSKPLTRGAKEEHGGLIRSPRHEKKKKVRKYWDVPPPGFEHITPMQYKAMQAAGQIPATALLPTMTPDGLAVTPTPVPVVGSQMTRQARRLYVGNIPFGITEEAMMDFFNAQMRLGGLTQAPGNPVLAVQINQDKNFAFLEFRSVDETTQAMAFDGIIFQGQSLKIRRPHDYQPLPGMSENPSVYVPGVVSTVVPDSAHKLFIGGLPNYLNDDQVKELLTSFGPLKAFNLVKDSATGLSKGYAFCEYVDINVTDQAIAGLNGMQLGDKKLLVQRASVGAKNATLVSPPSTINQTPVTLQVPGLMSSQVQMGGHPTEVLCLMNMVLPEELLDDEEYEEIVEDVRDECSKYGLVKSIEIPRPVDGVEVPGCGKIFVEFTSVFDCQKAMQGLTGRKFANRVVVTKYCDPDSYHRRDFW
For B2, in the assay with G9a and GLP, the “Relative to UNC0638 UNC Heavy” value is given as 0.14 log base 2, the “Relative to UNC0638 UNC Light” value was determined as 0.20 log base 2 and the “Relative to UNC0638 Average” value is 0.17 log base 2. In the assay with 3×MBT domain of L3MBTL1, the “3xMBT/D355N UNC Heavy” value is 2.86 log base 2 and the “3xMBT/D355N UNC Light” value was determined as 2.60 log base 2.

B3: PALLD (protein, UniProt Q8WX93 1-1383, looked up)
Palladin: MSGTSSHESFYDSLSDMQEESKNTDFFPGLSAFLSQEEINKSLDLARRAIADSETEDFDSEKEISQIFSTSPASLCEHPSHKETKLGEHASRRPQDNRSTPVQPLAEKQTKSISSPVSKRKPAMSPLLTRPSYIRSLRKAEKRGAKTPSTNVKPKTPHQRKGGPQSQLCDKAANLIEELTSIFKAAKPRNRSPNGESSSPDSGYLSPKNQPSALLSASASQSPMEDQGEMEREVKSPGARHCYQDNQDLAVPHNRKSHPQPHSALHFPAAPRFIQKLRSQEVAEGSRVYLECRVTGNPTPRVRWFCEGKELHNTPDIQIHCEGGDLHTLIIAEAFEDDTGRYTCLATNPSGSDTTSAEVFIEGASSTDSDSESLAFKSRAGAMPQAQKKTTSVSLTIGSSSPKTGVTTAVIQPLSVPVQQVHSPTSYLCRPDGTTTAYFPPVFTKELQNTAVAEGQVVVLECRVRGAPPLQVQWFRQGSEIQDSPDFRILQKKPRSTAEPEEICTLVIAETFPEDAGIFTCSARNDYGSATSTAQLVVTSANTENCSYESMGESNNDHFQHFPPPPPILETSSLELASKKPSEIQQVNNPELGLSRAALQMQFNAAERETNGVHPSRGVNGLINGKANSNKSLPTPAVLLSPTKEPPPLLAKPKLDPLKLQQLQNQIRLEQEAGARQPPPAPRSAPPSPPFPPPPAFPELAACTPPASPEPMSALASRSAPAMQSSGSFNYARPKQFIAAQNLGPASGHGTPASSPSSSSLPSPMSPTPRQFGRAPVPPFAQPFGAEPEAPWGSSSPSPPPPPPPVFSPTAAFPVPDVFPLPPPPPPLPSPGQASHCSSPATRFGHSQTPAAFLSALLPSQPPPAAVNALGLPKGVTPAGFPKKASRTARIASDEEIQGTKDAVIQDLERKLRFKEDLLNNGQPRLTYEERMARRLLGADSATVFNIQEPEEETANQEYKVSSCEQRLISEIEYRLERSPVDESGDEVQYGDVPVENGMAPFFEMKLKHYKIFEGMPVTFTCRVAGNPKPKIYWFKDGKQISPKSDHYTIQRDLDGTCSLHTTASTLDDDGNYTIMAANPQGRISCTGRLMVQAVNQRGRSPRSPSGHPHVRRPRSRSRDSGDENEPIQERFFRPHFLQAPGDLTVQEGKLCRMDCKVSGLPTPDLSWQLDGKPVRPDSAHKMLVRENGVHSLIIEPVTSRDAGIYTCIATNRAGQNSFSLELVVAAKEAHKPPVFIEKLQNTGVADGYPVRLECRVLGVPPPQIFWKKENESLTHSTDRVSMHQDNHGYICLLIQGATKEDAGWYTVSAKNEAGIVSCTARLDVYTQWHQQSQSTKPKKVRPSASRYAALSDQGLDIKAAFQPEANPSHLTLNTALVESEDL
For the molecule B3, in the assay with G9a and GLP, the “Relative to UNC0638 UNC Heavy” value was 0.26 log base 2, the “Relative to UNC0638 UNC Light” value stood at 0.09 log base 2 and the “Relative to UNC0638 Average” value worked out at 0.17 log base 2. Further, in the assay on 3×MBT domain of L3MBTL1, the “3xMBT/D355N UNC Heavy” value is listed as 2.50 log base 2 and the “3xMBT/D355N UNC Light” value is listed as 2.31 log base 2.

B4: PRPF4 (protein, UniProt O43172 1-522, looked up)
U4/U6 small nuclear …: MASSRASSTQATKTKAPDDLVAPVVKKPHIYYGSLEEKERERLAKGESGILGKDGLKAGIEAGNINITSGEVFEIEEHISERQAEVLAEFERRKRARQINVSTDDSEVKACLRALGEPITLFGEGPAERRERLRNILSVVGTDALKKTKKDDEKSKKSKEEYQQTWYHEGPNSLKVARLWIANYSLPRAMKRLEEARLHKEIPETTRTSQMQELHKSLRSLNNFCSQIGDDRPISYCHFSPNSKMLATACWSGLCKLWSVPDCNLLHTLRGHNTNVGAIVFHPKSTVSLDPKDVNLASCAADGSVKLWSLDSDEPVADIEGHTVRVARVMWHPSGRFLGTTCYDRSWRLWDLEAQEEILHQEGHSMGVYDIAFHQDGSLAGTGGLDAFGRVWDLRTGRCIMFLEGHLKEIYGINFSPNGYHIATGSGDNTCKVWDLRQRRCVYTIPAHQNLVTGVKFEPIHGNFLLTGAYDNTAKIWTHPGWSPLKTLAGHEGKVMGLDISSDGQLIATCSYDRTFKLWMAE
Consider B4, for which, in the assay with G9a and GLP, the “Relative to UNC0638 UNC Heavy” value is given as 0.63 log base 2, the “Relative to UNC0638 UNC Light” value is −0.28 log base 2 and the “Relative to UNC0638 Average” value was determined as 0.18 log base 2. In the assay on 3×MBT domain of L3MBTL1, the “3xMBT/D355N UNC Heavy” value came to 2.85 log base 2 and the “3xMBT/D355N UNC Light” value came out at 2.26 log base 2.
